Data as given in FireProtDB (doi:10.1006/jmbi.1993.1336).

B1: Guanyl-specific ribonuclease T1, P00651 (parent)
chain: MMYSKLLTLTTLLLPTALALPSLVERACDYTCGSNCYSSSDVSTAQAAGYQLHEDGETVGSNSYPHKYNNYEGFDFSVSSPYYEWPILSSGDVYSGGSPGADRVVFNENNQLAGVITHTGASGNNFVECT

Variants of: B1
Settings: Aspergillus oryzae (strain ATCC 42149 / RIB 40); pH 5; 25 °C; GdnHCl; Fluorescence; Sodium acetate 0.1 M; reversible: yes; structure 1RN1; whole UniProt chain shown

Q: For MMYSKLLTLTTLLLPTALALPSLVERACDYTCGSNCYSSSDVSTAQAAGYQLHEDGETVGSNSYAHKYNNYEGFDFSVSSPYYEWPILSSGDVYSGGSPGADRVVFNENNQLAGVITHTGASGNNFVECT [P65A], which “ddG of mutation (higher = less stable)” value is on record?
A: Its value is 5.12 kcal/mol.

Q: What about the denaturant m value of the same variant?
A: The denaturant m value was 2.63 kcal/mol/M.

Q: What about the “denaturant midpoint (higher = more stable)” value of the same variant?
A: Its value is 1.71 M.

Q: What about the unfolding free energy of the same variant?
A: The unfolding free energy was 4.88 kcal/mol.

Same assay, conditions: Aspergillus oryzae (strain ATCC 42149 / RIB 40); pH 8; 10 °C; GdnHCl; Fluorescence; Tris 0.1 M; reversible: yes; structure 1RN1; whole UniProt chain shown

Q: What does the source list for MMYSKLLTLTTLLLPTALALPSLVERACDYTCGSNCYSSSDVSTAQAAGYQLHEDGETVGSNSYAHKYNNYEGFDFSVSSPYYEWPILSSGDVYSGGSPGADRVVFNENNQLAGVITHTGASGNNFVECT [P65A]?
A: ddG of mutation (higher = less stable): 4.33 kcal/mol; denaturant m value: 2.87 kcal/mol/M; denaturant midpoint (higher = more stable): 1.43 M; unfolding free energy: 4.11 kcal/mol
